{"source": "patent CN1421459A", "key": {"人T细胞CD3 (human) [1]": {"molecular_target": "人T细胞CD3 (human)", "sequence (P07766 23-207, chain 1 of 4)": "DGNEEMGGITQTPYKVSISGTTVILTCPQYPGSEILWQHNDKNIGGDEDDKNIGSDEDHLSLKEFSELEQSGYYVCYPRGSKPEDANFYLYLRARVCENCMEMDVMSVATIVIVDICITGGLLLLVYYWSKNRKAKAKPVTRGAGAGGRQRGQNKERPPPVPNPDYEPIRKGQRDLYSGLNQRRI", "sequence (P09693 23-182, chain 2 of 4, further chain)": "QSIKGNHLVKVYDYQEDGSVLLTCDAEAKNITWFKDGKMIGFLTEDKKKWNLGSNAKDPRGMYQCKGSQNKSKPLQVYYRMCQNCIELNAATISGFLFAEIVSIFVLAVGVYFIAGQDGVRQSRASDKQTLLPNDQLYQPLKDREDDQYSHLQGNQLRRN", "sequence (P04234 22-171, chain 3 of 4, further chain)": "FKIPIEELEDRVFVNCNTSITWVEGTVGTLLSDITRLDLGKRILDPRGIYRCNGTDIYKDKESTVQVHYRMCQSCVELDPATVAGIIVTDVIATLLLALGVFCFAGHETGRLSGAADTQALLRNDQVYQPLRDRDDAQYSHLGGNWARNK", "sequence (P20963 22-164, chain 4 of 4, further chain)": "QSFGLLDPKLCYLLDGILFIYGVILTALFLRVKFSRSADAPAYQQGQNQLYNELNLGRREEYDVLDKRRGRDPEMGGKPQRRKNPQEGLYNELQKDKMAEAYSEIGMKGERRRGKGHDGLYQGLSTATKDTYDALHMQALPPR", "test": "cell-based or functional assay"}, "人T细胞CD3 (human) [2]": {"molecular_target": "人T细胞CD3 (human)", "test": "flow cytometry on human PBMC, unlabelled huGD3 competing with saturating FITC-mGD3; calculated by the formula [X]-[mGD3]=(1/Kx)-(1/Ka)"}, "人T细胞CD3 (human) [3]": {"molecular_target": "人T细胞CD3 (human)", "test": "fluorescence staining, flow cytometry, antibody 1 μg/ml; cells not named"}, "人T细胞CD3 (human) [4]": {"molecular_target": "人T细胞CD3 (human)", "test": "fluorescence staining and flow cytometry on CD3-positive HPBLL or Jurkat cells, compared with mOKT3 (Fig. 3)"}, "人T细胞CD3 (human) [5]": {"molecular_target": "人T细胞CD3 (human)", "test": "fluorescence staining, flow cytometry, antibody 0.1 μg/ml; cells not named"}, "人T细胞CD3 (human) [6]": {"molecular_target": "人T细胞CD3 (human)", "test": "fluorescence staining, flow cytometry, antibody 10 μg/ml; cells not named"}}}
{"binder": "人源化抗体huGD3 (antibody, human IgG1, V domains shown) VH: QVQLVQSGGGVVQPGRSLRLSCKASGYTFTSYTMHWVRQAPGKGLEWIGYINPSSGYTKYNQKFKDRFTISADNSKSTAFLQMDSLRPEDTAVYYCARWQDYDVYFDYWGQGTPVTVSS VL: DIVLTQSPSSLSASVGDRVTITCRASSSVSYMHWYQQTPGKAPKPWIYATSNLASGVPSRFSGSGSGTDYTFTISSLQPEDIATYYCQQWSSNPPTFGQGTKLQITR", "values": [{"measurement": "CD3调变(%), antibody 10^1 ng/ml, human PBMC, 37°C 24 h", "setting": "人T细胞CD3 (human) [1]", "result": 13.6, "unit": "%"}, {"measurement": "CD3调变(%), antibody 10^2 ng/ml, human PBMC, 37°C 24 h", "setting": "人T细胞CD3 (human) [1]", "result": 56.9, "unit": "%"}, {"measurement": "CD3调变(%), antibody 10^3 ng/ml, human PBMC, 37°C 24 h", "setting": "人T细胞CD3 (human) [1]", "result": 70, "unit": "%"}, {"measurement": "CD3调变(%), antibody 10^4 ng/ml, human PBMC, 37°C 24 h", "setting": "人T细胞CD3 (human) [1]", "result": 85.4, "unit": "%"}, {"measurement": "CD3调变(%), antibody 10^5 ng/ml, human PBMC, 37°C 24 h", "setting": "人T细胞CD3 (human) [1]", "result": 85.6, "unit": "%"}, {"measurement": "CD3调变(%), antibody 10^-1 ng/ml, human PBMC, 37°C 24 h", "setting": "人T细胞CD3 (human) [1]", "result": 9.52, "unit": "%"}, {"measurement": "CD3调变(%), antibody column printed '10' (probably 10^0) ng/ml, human PBMC, 37°C 24 h", "setting": "人T细胞CD3 (human) [1]", "result": 13.2, "unit": "%"}, {"measurement": "Ka", "setting": "人T细胞CD3 (human) [2]", "result": "1.6e+09", "unit": "M⁻¹"}, {"measurement": "MFI", "setting": "人T细胞CD3 (human) [3]", "result": 76, "unit": "MFI"}, {"measurement": "亲和力 relative to mOKT3 (orders of magnitude)", "setting": "人T细胞CD3 (human) [4]", "result": "2 数量级"}, {"measurement": "MFI", "setting": "人T细胞CD3 (human) [5]", "result": 55, "unit": "MFI"}, {"measurement": "MFI", "setting": "人T细胞CD3 (human) [6]", "result": 97, "unit": "MFI"}]}
